Data on 25 molecules can be found in paper PMC8299219 (Cell, 2021).

Residue numbers refer to the chain shown, from its start.

For this assay, the target named is SARS-CoV-2 S ectodomain trimer, prefusion-stabilized, 2P variant (Wrapp et al., 2020) (SARS-CoV-2, Wuhan-Hu-1, UniProt P0DTC2, stabilised).

B1: C89A10 (antibody, V domains shown)
VH: EVQLLESGGGLVQPGGSLRLSCAASGFIFSSYAMSWVRQAPGKGLEWVSVISGSGDITYYADSVKGRFTISRDNSKNTLYLQMNSLRAEDTAVYYCAKDIDEPTAMVESWGYWGQGTLVTVSS
VL: QSALTQPRSVSGSPGQSVTISCTGTSSDVGGYNYVSWYQQHPGKAPKLMIYDVSKRPSGVPDRFSGSKSGNTASLTISGLQAEDEADYYCCSYAGSWVFGGGTKLTVL
As for B1, the binding result is “binds”.

B2: C15D4 (antibody, V domains shown)
VH: QVQLQQWGAGLLKPSETLSRTCAVYGGSFSGYYWTWIRQPPGMALEWIGDINHGGVTNYNPSLKSRVTISVDTSKNQFSLRLTSVTAADTAVYYCARRLLGDPRPASSSLSLRRVSYMDVWDKGTTVTVSS
VL: DIQMTQSPSSMSASVGDRVTITCRASQSISNYLNWYQQKPGRAPKLLIYGASSLQSGVPSRFGGSGSGTEFTLTITALQPEDSATYYCQQIHGAPPITFGQGTRLEIK
For B2, the binding result was “binds”.

B3: C30C2 (antibody, V domains shown)
VH: EVQLVESGGGLVQPGGSLRLSCAASGFTVSSNYMSWVRQAPGKGLEWVSVIYSGGSTYYADSVKGRFTISRDNSKNTLYLQVNSLRAEDTAVYYCARDGRDNAFDIWGQGTMVTVSS
VL: not shown
Take B3: the binding result is “binds”.

B4: G32B6 (antibody, V domains shown)
VH: QVQLVQSGAEVKKPGASVKVSCKASGYTFTGYYMYWVRQAPGQGLEWMGWINPNSGGTNYAQKFQGRVTMTRDRSISTAYMELSRLRSDDTAMYYCARDRVGDILTGYYGYWGQGTLVTVSS
VL: QSALTQPPSASGSPGQSVTISCTGTSSDVDSYNYVSWYQQHPGKAPKLMIYEVSKRPSGVPDRFSGSKSGNTASLTVSGLQAEDEADYYCSSYAGSNNWVFGGGTKLTVL
Turning to B4, the binding result was “binds”.

B5: G32A8 (antibody, V domains shown)
VH: QVQLVQSGAEVKKPGASVKVSCKASGYTFTGYYMHWVRQAPGQGLEWMGWINPNSGATNYAQKFQGRVTMTRDTSINTAYMELNRLRSDDTAVYYCARDIVFSRLGASFDYWGQGTLVTVSS
VL: B4 VL with D30G, S31G, S54T, N98Y, W99N
As for B5, the binding result is listed as “binds”.

B6: C53E1 (antibody, V domains shown)
VH: EVQLVQSGAEVKKPGESLKISCKGSGYSFTSYWIGWVRQMPGKGLEWMGIIYPGDSDTTYSPSFQGQVTISADKSISTAYLQWSSLKASDTAMYYCARRSNSPFPLIDYWGQGTLVTVSS
VL: not shown
Take B6: the binding result was “binds”.

B7: C98C7 (antibody, V domains shown)
VH: EVQLVESGGGLVQPGGSLRLSCAASGITVSSNYMSWVRQAPGKGLEWVSVIYSGGSTFYADSVKGRFTISRDNSKNTLYLQMSSLRAEDTAVYYCARDLVVFGMDVWGQGTTVTVSS
VL: EIVLTQSPGTLSLSPGETATLSCRASQSVGSSYLTWYQQKPGQAPRLLIYGASSRATGIPDRFSGSGSGTDFTLTISRLEPEDFAVYYCQHYGSSPTFGQGTKVEIK
Regarding B7, the binding result is “binds”.

B8: C18C10 (antibody, V domains shown)
VH: EVQLVESGGGLVQPGGSLRLSCAASGFTFSNYAISWVRQAPGKGLEWVSLISGSGGSTYYADSVKGRFTISRDNSKNTLYLQMNSLRAEDTAVYYCATTNIPPFSGYYLDAFDIWGQGTMVTVSS
VL: not shown
In the case of B8, the binding result is “binds”.

B9: C53F9 (antibody, V domains shown)
VH: QVQLVQSGAEVKKPGASVKVSCKASGYTFTSYGISWVRQAPGQGLEWMGWISAYNGNTNYAQKLQGRVTMTTDTSTSTAYMELRSLRSDDTAVYYCARVGTYYYDSSAYYFDYWGQGTLVTVSS
VL: not shown
Regarding B9, the binding result was “binds”.

B10: C63C8 (antibody, V domains shown)
VH: EVQLVESGGGLVQPGGSLRLSCAASGFTFSSYWMSWVRQAPGKGLEWVANIKQDGSEKYYVDSVKGRFTMSRDNAKNSLYLQMNSLRAEDTAVYYCASLRWLQADFEYWGQGTLVTVSS
VL: NFMLTQPHSVSESPGKTVTISCTRSSGSIASNYVQWYQQRPGSSPTTVIYEDNQRPSGVPDRFSGSIDSSSNSASLTISGLKTEDEADYYCQSYDSTNHVFGTGTKVTVL
Turning to B10, the binding result is on record as “binds”.

B11: C41P1 (antibody, V domains shown)
VH: QVQLVESGGGVVQPGRSLRLSCAASGFTFSSYAMHWVRQAPGKGLEWVAVISYDGRNKYYADSVKGRFTISRENSKNTLYLQMNSLRAEDTAVYYCARDLGVVVPAAIGWVNPRDDYYYYYGMDVWGQGTTVTVSS
VL: SYELTQPPSVSVSPGQTARITCSGDALPKQYAYWYQQKPGQAPVLVIYKDSERPSGIPERFSGSSSGTTVTLTISGVQAEDEADYYCQSADSSGTYRVFGTGTKVTVL
In the case of B11, the binding result is “binds”.

B12: C18C11 (antibody, V domains shown)
VH: EVQLVESGGGVVQPGRSLRLSCAASGFTFSSYAMHWVRQAPGKGLEWVAVISYDGSNKYYADSVKGRFTISRDNSKNTLYLQMNSLRAEDTAVYYCASLITMVRGVFDYWGQGTLVTVSS
VL: not shown
For the molecule B12, the binding result is recorded as “binds”.

B13: C15D10 (antibody, V domains shown)
VH: QVQLQQSGPGLVKPSQTLSLTCAISGDSVSSNSAAWNWIRQSPSRGLEWLGRTYYRSKWYNDYAVSVKSRITINPDTSKNQFSLQLNSVTPEDTAVYYCAREQQLVSHDYYYYYGMDVWGQGTTVTVSS
VL: QSALTQPASVSGSPGQSITISCTGTSSDVGGYNYVSWYQQHPGKAPKLMIYDVSNRPSGVSNRFSGSKSGNTASLTISGLQAEDEADYYCSSYTSSSSLFGTGTKVTVL
Turning to B13, the binding result is recorded as “binds”.

B14: C12E7 (antibody, V domains shown)
VH: QVQLVESGGGVVQPGRSLRLSCAASGFTFSSYGMHWVRQAPGKGLEWVAVISYDGSNKYYADSVKGRFTISRDNSKNTLYLQMNSLRAEDTAVYYCAKSGYSYAYPMVYFDYWGQGTLVTVSS
VL: SYELTQPPSVSVAPGKTARITCGGNNIGSKSVHWYQQKPGQAPVLVVYDDSDRPSGIPERFSGSNSGNTATLTISRVEAGDEADYYCQVWDSSSDHPGVFGGGTKLTVL
Regarding B14, the binding result is on record as “binds”.

B15: C102A4 (antibody, V domains shown)
VH: QVQLVQSGAEVKKPGSSVKVSCKASGGTFSSYAISWVRQAPGQGLEWMGGIIPIFGTANYAQKFQGRVTITADESTSTAYMELSSLRSEDTAVYYCATQPSYGDLDLFDYWGQGTLVTVSS
VL: not shown
With B15, the binding result is recorded as “binds”.

B16: C63C7 (antibody, V domains shown)
VH: not shown
VL: QSVLTQPPSVSGAPGQRATISCTGSSSNIGAGYDVHWYQQLPGTSPKLLIYGNSNRPSGVPDRFSGSKSGTSASLAITGLQAEDEAEYYCQSYDSSLSGSVVFGGGTKLTVL
Take B16: the binding result is reported as “binds”.

B17: G32Q3 (antibody, V domains shown)
VH: QVQLVQSGTEVKKPGASVKVSCKASGYTFPNYGITWVRQAPGQGLEWVGWISAYNGNTNYAQKLQGRVTMTTDTSTNTAYMELRSLRSDDTAVYYCARSIAVAGTTAEFDYWGQGTLVTVSS
VL: not shown
On to B17, for which the binding result is listed as “binds”.

B18: C63D3 (antibody, V domains shown)
VH: EVQLVESGGGLVQPGGSLRLSCAASGFTFSSYDMHWVRQATGKGLEWVSVIGTAGDTYYPGSVKGRFTISRENAKNSLYLQMNSLRAGDTAVYYCARGHSTGQGYSYYYYMDVWGKGTTVTVSS
VL: not shown
B18: the binding result was “binds”.

B19: C53F10 (antibody, V domains shown)
VH: EVQLVQSGAEVKKPGESLRISCKGAGYSFTSYWITWVRQMPGKGLEWMGRIDPSDSYTNYSPSFEGHVTISADKSISTAYLQWSSLKASDTAMYYCARLYCGGDCPPGYWGQGTLVTVSS
VL: not shown
In the case of B19, the binding result is listed as “binds”.

B20: G32C4 (antibody, V domains shown)
VH: EVQLVQSGAEVKKPGESLKISCKGSGYSFISYWIGWVRQMPGKGLEWMGIIYPGDSDTRYSPSFQGQVTISADKSISTAYLQWSSLKASDTAMYYCARMTQGYGTIRPLYYFDYWGQGTLVTVSS
VL: not shown
Regarding B20, the binding result is reported as “binds”.

B21: G32Q4 (antibody, V domains shown)
VH: QVQLVESGGGVVQPGRSLRLSCAASGFTFSRYAMQWVRQAPGKGLEWVAVISYDGNNRYYADSVKGRFTISRDNSKNTLYLQMNSLRAEDTAVYYCARGPPGYYDSSGYYQTPEYFQHWGQGTLVTVSS
VL: QSVLTQPPSVSGAPGQRVTISCTGSSSNIGVGYDVHWYQQFPGTVPKLLIYGNSNRPSGVPDRFSGSKSGTSASLAITGLQAEDEADYYCQSYDSSLSGVVFGGGTKLTVL
Regarding B21, the binding result was “binds”.

B22: C12D5 (antibody, V domains shown)
VH: QVQLVESGGGVVQPGRSLRLSCAASGFTFSSYVMHWVRQAPGKGLEWVAVISYDGSNKYYADSVKGRFTISRDNSKNTLYLQMNSLRAEDTAVYYCARDPGARRDGYVSLGGSYDWFDPWGQGTLVTVSS
VL: B21 VL with S25T, V31A, F41L, V45A, V100W
For B22, the binding result is reported as “binds”.

B23: C53F11 (antibody, V domains shown)
VH: QVQLQESGPGLVKPSETLSLTCTVSGYSISSGYYWGWIRQPPGKGLEWIGSIYHSESTYYNPSLKSRVTISVDTSKSQFSLKLSSVTAADTAVYYCGRSLWDSIWEDHIGAVDYWGQGTLVTVSS
VL: QSALTQPASVSGSPGQSITISCTGTSSDVGNYNLVSWYQQHPGKAPKLMIYEGSKRPSGVSNRFSGSKSGNTASLTISGLQAEDEADYYCCSYAGSSILWVFGGGTKLTVL
As for B23, the binding result is “binds”.

B24: G32B1 (antibody, V domains shown)
VH: QVQLVESGGGVVQPGRSLRLSCAASGFTFSSYGMHWVRQAPGKGLEWVAVISYDGSNKYYADSVKGRFTISRDNSKNTLYLQMNSLRAEDTAVYYCAKVVAPYYYYYYGMDVWGQGTTVTVSS
VL: B23 VL with N31G, L34Y, G53V, K55N, C91S, A94T, G95S, I98T, L99S
On to B24, for which the binding result is listed as “binds”.

B25: C12C10 (antibody, V domains shown)
VH: not shown
VL: B23 VL with N31G, L34Y, E52D, G53V, K55Y, C91S, A94T, G95S, W100G
Regarding B25, the binding result was “binds”.
